# Target: growth hormone (GH) receptor (mouse) (UniProt P16882)
# Assay: cell-based or functional assay
substance,measurement,value
recombinant rat growth hormone (from UniProt P01244 27-216) (ligand),"GH receptor mRNA expression levels in the liver (quantitative RT-PCR, normalized to GAPDH, % of control), 60 minutes after 30 µg subcutaneous rGH in BALB/c mice (% of level prior to administration)",65
same,"IGF-1-BP3 mRNA expression levels in the liver (quantitative RT-PCR, normalized to GAPDH, % of control), 60 minutes after 30 µg subcutaneous rGH in BALB/c mice",250 % increase

# Source: patent US20090285771A1
